Assay results reported in patent US6586197B1, “Methods and materials for identifying novel pesticide agents” (priority 1999, dated 2003).

What was measured:
[1] = system: expressed M sexta APN1a; assay: Aminopeptidase N activity assay (L-leucine-p-nitroanilide), homogenate of pHSP120-transfected Sf21 cells; assay type: biochemical, Manduca sexta; details: homogenate 50 μg of proteins, pHSP120-transfected Sf21 cells (FIG. 9, column B)
Procedure: (§1) Sf21 cells transfected with pHSP120 or pHSP-HR5 were collected and washed two times with PBS. The cells were suspended in 2 ml PBS and then homogenized with Potter-Helvehjem homogenizer. The cell homogenate was centrifuged at 27,000×g for 15 min at 4° C. The pellet was re-suspended in 2 ml of 10 mM Tris-HCl, 150 mM NaCl, pH 7.4. APN activity was assayed with L-leucine-p-nitroanilide as substrate as described previously (4). Briefly, the APN substrate (50 μl 6.8 mg/ml in methanol) was mixed with 1.4 ml of substrate buffer (10 mM Tris-HCl, 150 mM NaCl pH 7.4), and then the homogenate (50 μg of proteins) was added. The sample solution was incubated at 37° C. for 2 h. The level of APN activity was then determined by spectrophotometric measurement of free p-nitroanilide at […].
(§2) Sf21 cells transfected with pHSP120 or pHSP-HR5 were collected and homogenized. The homogenate (50 μg of proteins) was tested for APN activity. A high level of APN activity was present in the cells transfected pHSP120 compared with that in the cells transfected with pHSP-HR5 (FIG. 9, columns A and C).

[2] = system: enzymatic activity of Sf21 cells transfected with pHSP-HR5; assay: Aminopeptidase N activity assay (L-leucine-p-nitroanilide), homogenate of pHSP-HR5-transfected Sf21 cells; assay type: biochemical, Spodoptera frugiperda; details: homogenate 50 μg of proteins, pHSP-HR5-transfected Sf21 cells (FIG. 9, column D)
Procedure: as §1, §2

[3] = target: T1, purified 115 kDa APN from Manduca sexta (Manduca sexta, UniProt Q11001); details: Masson et al., 1995; cited from earlier work
T1 sequence (Q11001 36-968 limits assumed): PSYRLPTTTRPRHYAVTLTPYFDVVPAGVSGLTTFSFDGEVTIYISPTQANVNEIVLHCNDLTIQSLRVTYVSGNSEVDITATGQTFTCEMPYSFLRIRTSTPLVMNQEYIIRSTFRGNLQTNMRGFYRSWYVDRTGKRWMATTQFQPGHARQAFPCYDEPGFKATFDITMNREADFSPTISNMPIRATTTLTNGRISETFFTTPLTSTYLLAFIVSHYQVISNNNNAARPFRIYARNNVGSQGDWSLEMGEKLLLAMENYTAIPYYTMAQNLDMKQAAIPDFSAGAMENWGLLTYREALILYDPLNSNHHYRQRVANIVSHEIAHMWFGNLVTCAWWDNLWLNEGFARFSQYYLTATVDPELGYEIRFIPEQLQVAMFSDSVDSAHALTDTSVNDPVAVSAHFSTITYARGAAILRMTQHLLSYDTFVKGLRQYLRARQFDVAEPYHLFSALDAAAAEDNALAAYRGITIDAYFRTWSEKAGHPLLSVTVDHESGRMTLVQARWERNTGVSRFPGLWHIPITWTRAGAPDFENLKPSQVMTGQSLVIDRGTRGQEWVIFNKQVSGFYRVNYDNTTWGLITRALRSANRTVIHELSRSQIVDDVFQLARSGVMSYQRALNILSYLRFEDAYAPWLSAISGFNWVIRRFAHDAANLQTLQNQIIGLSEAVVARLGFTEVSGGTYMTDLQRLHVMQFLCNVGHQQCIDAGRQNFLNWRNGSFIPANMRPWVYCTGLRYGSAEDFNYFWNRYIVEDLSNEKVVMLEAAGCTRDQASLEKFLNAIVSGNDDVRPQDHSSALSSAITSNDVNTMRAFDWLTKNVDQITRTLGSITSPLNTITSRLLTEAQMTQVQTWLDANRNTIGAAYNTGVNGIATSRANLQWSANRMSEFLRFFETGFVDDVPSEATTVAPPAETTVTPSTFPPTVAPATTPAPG

[4] = target: T2, M. sexta 120 kDa APN (Manduca sexta, UniProt Q11001); details: previous studies (Knight 1994; Sangadala 1994; Masson 1995; Lu and Adang 1996); cited from earlier work
T2 sequence (Q11001 36-968): T1 sequence (Q11001 36-968 limits assumed)

[5] = system: Sf21 cells transfected with pHSP120; assay: Toxicity assay (Trypan blue cell mortality), Sf21 cells expressing M. sexta 120 kDa APN; details: 2 h
Procedure: (§3) The pHSP120 plasmid DNA was isolated and purified using a Plasmid Maxi Kit (Qiagen, Valencia, Calif.). Sf21 (IPLB-Sf21) cells (Vaughn et al., 1977) were plated at 1.8×10^6 cells per plate (60 mm diameter) prior to transfection with pHSP120 DNA. Plasmid DNA (10 μg) was mixed with 5 μl of Lipofectin reagent (Gibco BRL, Gaithersburg, Md.) and combined with 1 ml of TC-100 medium (Gibco BRL, Gaithersburg, Md.). The mixture was incubated at room temperature for 15 min. Following 3 washes with TC-100 medium, the DNA/Lipofectin mixture was added to the cells, and then the cells were incubated at room temperature for 4 h on a rocker. After removal of DNA/Lipofectin mixture, TC-100 with 10% fetal bovine serum (4 ml) was added to the plates and the cells were incubated at 27° C. overnight. Expression of 120 kDa APN in Sf21 cells was induced by heat-shocking cells at 42° C. for 30 min the following day. After incubation at 27° C. for 24 h, the cells were collected and analyzed using immunofluorescence localization and Western blotting.
Sf21 cells (1.8×10^6) were grown and heat-shocked as described above. […] The freshly prepared toxin solution (1 ml) was added to each Sf21 cell plate and incubated at room temperature for 2 h. Cell mortality was determined by trypan blue staining as described by Thomas and Ellar (1983).
(§4) Thetoxicity of three Cry1toxins to Sf21 cells expressing M sexta 120 APN was determined. A single concentration of Cry1toxins (40 μg/ml) was used and the cell mortality was measured by Trypan blue staining (Thomas and Ellar 1983).

[6] = system: Sf21 cells transfected with pHSP-HR5; assay: Toxicity assay (Trypan blue cell mortality), control-vector Sf21 cells; details: 2 h
Procedure: as §3, with “Expression of 120 kDa APN in Sf21 cells was induced by heat-shocking cells at 42° C. for 30 min the following day.” left out
Sf21 cells (1.8×10^6) were grown and heat-shocked as described above. […] Cell mortality was determined by trypan blue staining as described by Thomas and Ellar (1983).
as §4

[7] = system: expressed 120 kDa APN on Sf21 cells transfected with pHSP120; assay: Immunofluorescence binding of rhodamine-labeled toxins to Sf21 cells (confocal microscopy), pHSP120; set-up: species or system Manduca sexta; details: toxin 1 μg/ml, fixed Sf21 cells transfected with pHSP120
Procedure: Growth of B. thuringiensis strains, trypsin activation, and fast-performance liquid chromatography (Pharmacia) purification of Cry1Ac, […] and Cry3a toxins were done as previously described (Garczynski et al 1991; Lu and Adang 1996). […] The purified Cry1Ac and Cry1Ba (200 μg) were labeled with 5-(and-6)-carboxytetramethylrhodamine, succinimidyl ester [5(6)-TAMRA SE] (Molecular Probe, Eugene, Oreg.) according to the manufacturer's instructions. Briefly, 5(6)-TAMRA (5 mg) were dissolved in 0.5 ml of Dimethylformamide (DMF) immediately before starting the labeling. The dye solution (100 μl) was slowly added into 500 μl of toxin sample (200 μg toxins) and incubated for 1 h at room temperature. The reaction was stopped by adding 0.1 ml of 1.5 M hydroxylamine, pH 8.5, and then the mixture was incubated. for 1h at room temperature. […]
Sf21 cells were plated onto a microscope cover glass (18×18 mm) in a tissue culture dish (60×15 mm diameter), and then transfected and heat-shocked as described above. […] Immunostained cells were observed using fluorescence microscopy or fluorescence confocal microscopy (Center for Advanced Ultrastructural Research, University of Georgia).
Since the expressed 120 kDa APN located on Sf21 cell surfaces, we examined the binding of Cry1toxins to Sf21 cells using double immunofluorescence staining. […] And then cells were viewed by fluorescence confocal microscopy.

[8] = system: expressed 120 kDa APN from Sf21 cells; assay: Toxin affinity chromatography and anti-APN immunoblot, Sf21 cells; assay type: binding, Manduca sexta; details: CHAPS-solubilized Sf21 cells, anti-APN immunoblot (FIG. 13)
Procedure: Affinity purification method of M. sexta 120 kDa APN from Sf21 cells or M. sexta midgut BBMV was described in Luo et al (1996). Briefly, Cry1Ac, Cry1Ba and Cry3a toxins (200 μg) were coupled to 400 μl of cyanogen bromide-activated Sepharose 4B in 20 mM Na2CO3, pH 9.6. M sexta BBMV (1 ml, 3.4 mg/ml proteins) or Sf21 cells (10^7 cells) were solubilized with 2% 3-[(3-cholamidopropyl) dimethylammoniol]-1-propane-sulphonate (CHAPS) in buffer A (50 mM Na2CO3, pH 9.6, 200 mM NaCl, 5 mM EGTA, 0.1% CHAPS). Insoluble material was removed by centrifugation at 27,000×g for 30 min at 4° C. CHAPS-solubilized BBMV (1 ml) or Sf21 cells (2 ml) were then added to the toxin-coupled Sepharose beads equilibrated with Buffer A. The mixture was incubated at 4° C. overnight. After washing with 100 ml of Buffer A, the binding protein-toxin complex was dissociated from the beads by heating in SDS-PAGE sample buffer at 100° C. for 5 min. The samples were separated by 8% SDS-PAGE, and then electrophoretically transferred to nitrocellulose membrane (Millipore Corp., Bedford, Mass.) in transfer buffer (Towbin et al., 1979) at 4° C. overnight. The membrane was blocked with 5% non-fat dry milk in PBST at room temperature for 1 h, and then probed with anti-APN antibody (0.5 μg/ml) in PBST containing 0.1% non-fat dry milk for 2 h. […]

## CC(C)C[C@@H](N)[C@H](O)C(=O)N[C@H](C(=O)N[C@H](C(=O)N[C@@H](CC(=O)O)C(=O)O)C(C)C)C(C)C [Amastatin]
[1]
  Effect on APN activity: greatly reduced
[2]
  Effect on APN activity: did not show significantly impact

## Cry1Aa: Bacillus thuringiensis Cry1 δ-endotoxin (literature)
[3]
  Binding to purified 115 kDa APN: bind
[4]
  Specific binding to M. sexta 120 kDa APN: bound specifically

## Cry1Ab: Bacillus thuringiensis Cry1 δ-endotoxin (literature)
[3]
  Binding to purified 115 kDa APN: bind
[4]
  Specific binding to M. sexta 120 kDa APN: bound specifically

## Cry1Ac: trypsin-activated, purified B. thuringiensis Cry1Ac toxin
[5]; 40 μg/ml toxin in insect PBS, Trypan blue (0.1%) staining, means of three assays (±standard error)
  Mortality (%) (±SE), Cells transfected with pHSP 120: 20.0 (±0.4) %
[5]; 40 μg/ml toxin
  Difference in mortality between pHSP120- and pHSP-HR5-transfected Sf21 cells: no significant difference
[5]; 40 μg/ml toxin, Sf21 cells transfected with pHSP120
  Toxicity in words: low toxicity
[6]; 40 μg/ml toxin in insect PBS, Trypan blue (0.1%) staining, means of three assays (±standard error), control vector
  Mortality (%) (±SE), Cells transfected with pHSP-HR5: 20.6 (±0.5) %
[6]; 40 μg/ml toxin, Sf21 cells transfected with pHSP-HR5
  Toxicity in words: low toxicity
[7]
  Binding of rhodamine-labeled toxin (immunofluorescence): does not bind
[8]
  Binding of APN to toxin affinity column: did not bind
[3]
  Binding to purified 115 kDa APN: bind
[4]
  Specific binding to M. sexta 120 kDa APN: bound specifically
